Source: the supplement of paper PMC10567573

B1: SPOPL (parent)
chain: YTGRAPNLDKMADNLLAAADKYAL
B2: UBE2R2 (parent)
chain: DPQSGELPSERWNPTQNVRTILLS

Variants of: B1
Assay: protein stability index of a GFP-peptide fusion (GPS, HEK-293T) (PSI 1-6); higher = more stable
Conditions: c terminus: a fixed tail appended
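Note: lentivirally expressed fusions sorted by FACS into six bins by GFP to DsRed ratio, PSI derived from sequencing read proportions per bin multiplied by bin number.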

Protein stability index, by site and new letter:
D9: A 2.12
G3: T 1.94 | R 2.29 | A 2.17 | L 2.11 | H 2.5 | S 2.1
D20: L 1.84 | F 1.39 | R 2.57
N7: R 1.48 | T 2.06 | Q 2.39 | G 1.89 | D 2.34 | E 1.99
L16: M 2.37 | E 3.22 | V 2.2
Y1: T 3.37 | H 3.8
A19: R 2.25 | M 2.22
A12: S 2.2
D13: S 2.04 | N 2.46
L15: F 2.23 | Q 2.96
R4: C 2.31 | L 3.6 | D 3
A18: W 2.62 | V 2.31 | H 1.96 | I 1.42
K21: I 1.42 | D 2.36
A5: P 2 | V 1.78 | M 1.51 | T 2.42
L24: C 2.37 | K 2.55 | S 2.73 | V 2
P6: Q 2.19 | T 2.16 | V 2.11 | D 2.31 | I 1.85 | H 1.09 | G 1.68
Y22: F 1.92 | L 1.61
A17: E 2.98 | G 2.79
A23: Y 2.02 | R 1.91 | F 1.81 | S 1.97
K10: N 2.6 | G 2.25 | P 2.42
M11: A 2.02 | R 2.05 | L 2.44 | N 2.43
L8: F 1.9 | S 1.83 | H 2.38
T2: R 2.43 | D 3.75
N14: S 2.38

Variants of: B2
Assay: as above
Conditions: c terminus: a fixed tail appended

Protein stability index: each site, then its substitutions
L7: F 3.2 | S 3.79 | Y 3.06 | N 4.11 | C 3.29 | H 3.67 | V 3.19 | D 4.51 | G 3.69 | M 3.71 | P 4.68 | E 4.02
R11: D 3.88 | V 3.62 | Q 4.04 | G 4.23 | W 2.79 | I 2.77 | L 3.24 | E 4.44 | Y 2.82 | K 3.5 | A 3.77
N13: D 4.22 | S 4 | V 3.17 | I 2.87 | G 2.46 | T 3.76 | P 3.71 | M 3.79 | E 3.83 | R 3.31 | Q 3.87
T20: L 2.79 | W 2.93 | A 3.64 | E 3.19 | S 4.1 | F 1.57 | I 1.65 | R 3.32 | P 3.79 | C 2.92 | H 3.6 | K 4.43
G5: A 3.21 | V 3.27 | K 3.49 | P 2.66 | L 3.53 | T 3.93 | C 2.8 | R 3.45 | S 3.61 | Q 3.77 | N 3.96 | W 2.6 | H 3.83
W12: R 4.31 | Q 4.44 | L 3.62 | V 4.2 | I 4.35 | T 4.72 | C 3.94 | P 4.4 | K 4.54 | A 4.61
S9: I 4.09 | Q 3.35 | C 3.9 | D 3.86 | V 3.81 | H 3.47 | T 3.98 | W 2.58 | M 3.87 | A 4.37 | K 3.94 | F 2.4
N17: D 3.99 | S 2.9 | A 3.06 | M 2.39 | K 3.23 | Q 3.6 | V 2.4 | H 3.04 | Y 2.38 | F 2.75 | G 4.3
P8: M 3.66 | K 3.58 | T 3.06 | Q 3.57 | N 3.53 | Y 3.34 | L 3.55 | H 3.59 | D 3.68 | S 3.48 | I 2.69
P14: Y 3.01 | C 3.35 | R 4.28 | I 2.8 | S 3.69 | K 3.56 | F 2.32 | M 3.09 | A 3.34 | T 4.13 | E 4.08
L23: V 3.34 | A 4.23 | Q 4.65 | E 4.47 | C 4.63 | W 3.79 | R 4.5 | Y 3.22 | N 4.87 | K 4.74 | I 3.17 | F 3.44 | P 4.34 | H 4.09
S24: V 2.81 | G 3.4 | K 4.34 | D 4.43 | M 2.23 | W 1.61 | R 3.16 | C 2.35 | E 4.23 | F 1.82 | Y 2.04
R19: N 4.5 | W 1.85 | S 4.08 | P 3.87 | D 4.43 | T 3.21 | Y 2.11 | Q 3.81 | A 3.61
I21: L 3.96 | K 4.61 | N 4.6 | W 3.55 | A 5.11 | R 4.52 | F 3.96 | Q 4.18 | G 4.81
T15: P 3.14 | E 3.6 | Q 3.63 | L 2.86 | A 3.15 | G 3.53 | I 2.78 | Y 3.22
S4: V 3.41 | A 3.15 | D 3.79 | F 3.49 | K 3.75 | L 3.6 | M 2.95 | N 2.99 | Y 2.39 | P 3.02 | C 3.61
D1: V 2.35 | T 2.63 | H 3.34 | F 2.58 | N 3.09 | A 2.69 | K 3.7 | I 2.67 | R 3.17
L22: Q 4.25 | F 3.54 | K 4.41 | V 3.42 | E 5.13 | Y 2.89 | W 2.44 | M 4.11 | N 4.47
E6: W 2.89 | T 3.37 | A 3.13 | S 3.1 | L 2.61 | H 3.25 | N 3.48 | D 3.44 | F 2.3 | I 3.24 | V 3.17 | Y 2.95
P2: V 3.61 | G 3.06 | K 3.95 | Q 3.22 | L 2.99 | N 3.35 | M 3.16
V18: G 4 | L 3.27 | A 4.38 | R 4.14 | Q 4.2 | H 4 | D 3.83 | T 4.04 | W 3.24 | K 3.78 | E 4.06
Q16: W 2.54 | F 2.5 | N 3.48 | S 3.58 | K 3.51 | R 3.81 | T 4.14 | C 3.04 | L 2.88 | P 3.24 | H 3.44
E10: I 2.55 | M 3.09 | H 3.14 | D 3.43 | S 2.95 | K 3.05 | L 2.98 | A 2.98 | P 3.51 | G 2.84 | Y 2.71 | V 2.6
Q3: A 3.67 | E 3.82 | S 3.41 | H 3.22 | N 3.45 | I 3.24 | P 3.01 | L 3.65 | F 4.05 | D 3.9 | Y 2.42 | T 4.11 | R 3.4 | K 3.06
